# Target: human ROR1 extracellular domain (ECD) protein (human) (UniProt Q01973)
# Assay: competitive phage ELISA, soluble vs coated ROR1
# human ROR1 extracellular domain (ECD) protein (human), sequence (Q01973 30-406 limits assumed): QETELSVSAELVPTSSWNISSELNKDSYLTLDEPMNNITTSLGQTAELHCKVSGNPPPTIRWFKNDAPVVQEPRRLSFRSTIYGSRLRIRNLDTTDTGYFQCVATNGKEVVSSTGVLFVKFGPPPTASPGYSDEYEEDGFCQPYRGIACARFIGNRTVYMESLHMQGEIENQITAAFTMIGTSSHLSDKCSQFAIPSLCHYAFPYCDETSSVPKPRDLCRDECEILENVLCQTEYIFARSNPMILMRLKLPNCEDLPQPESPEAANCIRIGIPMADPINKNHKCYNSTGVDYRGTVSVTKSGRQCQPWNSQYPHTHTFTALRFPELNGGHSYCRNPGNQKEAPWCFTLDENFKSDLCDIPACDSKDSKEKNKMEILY
row,IC50,Binder
1,263 nM,"P601-128 (scFv, from another filing, V domains shown) VH: EVQLVQSGAEVKKPGESLKISCKGSGYSFSRYWIGWVRQMPGKGLEWMGIIYPRDSDTRYSPSFQGQVTISADKSISTAYLQWSSLKASDTAMYYCATPVVTAGAFDIWGQGTMVTVSS VL: DIQMTQSPSSVSASVGDRVTITCRASQGISSWLAWYQQKPGKAPKLLIYAASSLQSGVPSRFSGSGSGTDFTLTISSLQPEDFATYYCQQANSFPLTFGGGTKVEIK"
2,2.76 nM,"P601-149 (scFv, from another filing, V domains shown) VH: EAQLVESGGGLVKPGGSLRLSCAASGFTFSDYYMGWVRQAPGKGLKWLSYISDRAHTIYDTDSVKGRFTISRDDAKSSLYLRMNNLRVEDTAVYYCARAVGAGEGFDYWGQGTLVTVSS VL: DIQLTQSPSSLSASVGDRVTITCQASQDVRNYLNWYQQKPGKAPNLLIYDATNLESGVPSRFSGSGSGTDFTFTISSLQPEDFATYYCQQYDNLPLSFGGGTKVEIK"
3,1.53 nM,"P601-153 (scFv, from another filing, V domains shown) VH: QMQLVQSGAEVKKPGASVKVSCKASGYTFTSYYMHWVRQAPGQGLEWMGIINPSGGSTSYAQKFQGRVTMTRDTSTSTVYMELSSLRSEDTAVYYCARGGYTGWSPSDPWGQGTLVTVSS VL: QSALTQPASVSGSPGQSITISCTGTSSDVGGYNYVSWYQQHPGKAPKFMIYDVSKRPSGVSNRFSGSKSGNTASLTISGLQAEDEADYYCGSFTSSITYVFGTGTKVTVL"

# — patent publication US20180142016A1
